Test results from patent publication US20050182242A1, “Global analysis of protein activities using proteome chips” (priority 2001, published 2005).

B1: Met30p: yeast protein with five WD-repeats that binds certain promoter regions (protein, UniProt P39014 1-640, looked up)
F-box protein MET30: MRRERQRMMSFEDKDKDDLDNSNSNNSSEMTDTAMMPPLKRLLITGSSDDLAQGSSGKKKMTMATRSPSSSPDLATNDSGTRVQPLPEYNFTKFCYRHNPDIQFSPTHTACYKQDLKRTQEINANIAKLPLQEQSDIHHIISKYSNSNDKIRKLILDGILSTSCFPQLSYISSLVTHMIKIDFISILPQELSLKILSYLDCQSLCNATRVCRKWQKLADDDRVWYHMCEQHIDRKCPNCGWGLPLLHMKRARIQQNSTGSSSNADIQTQTTRPWKVIYRERFKVESNWRKGHCRIQEFKGHMDGVLTLQFNYRLLFTGSYDSTIGIWDLFTGKLIRRLSGHSDGVKTLYFDDRKLITGSLDKTIRVWNYITGECISTYRGHSDSVLSVDSYQKVIVSGSADKTVKVWHVESRTCYTLRGHTEWVNCVKLHPKSFSCFSCSDDTTIRMWDIRTNSCLKVFRGHVGQVQKIIPLTIKDVENLATDNTSDGSSPQDDPTMTDGADESDTPSNEQETVLDENIPYPTHLLSCGLDNTIKLWDVKTGKCIRTQFGHVEGVWDIAADNFRIISGSHDGSIKVWDLQSGKCMHTFNGRRLQRETQHTQTQSLGDKVAPIACVCIGDSECFSGDEFGCVKMYKFDLND
B2: Trm2p: yeast protein involved in DNA repair and RNA processing/modification (protein, UniProt P33753 1-639, looked up)
tRNA …: MYEQFEFSFFFFENSDNKVKYKAHLISSIKRWSIITCMRCFWTVQKSIFKARFFACRNFVKKHNYKLISTMTGSTEMVPPTMKHTVDNKRLSSPLTDSGNRRTKKPKLRKYKAKKVETTSPMGVLEFEVNDLLKSQNLSREQVLNDVTSILNDKSSTDGPIVLQYHREVKNVKVLEITSNGNGLALIDNPVETEKKQVVIIPFGLPGDVVNIKVFKTHPYYVESDLLDVVEKSPMRRDDLIRDKYFGKSSGSQLEFLTYDDQLELKRKTIMNAYKFFAPRLVAEKLLPPFDTTVASPLQFGYRTKITPHFDMPKRKQKELSVRPPLGFGQKGRPQWRKDTLDIGGHGSILDIDECVLATEVLNKGLTNERRKFEQEFKNYKKGATILLRENTTILDPSKPTLEQLTEEASRDENGDISYVEVEDKKNNVRLAKTCVTNPRQIVTEYVDGYTFNFSAGEFFQNNNSILPIVTKYVRDNLQAPAKGDDNKTKFLVDAYCGSGLFSICSSKGVDKVIGVEISADSVSFAEKNAKANGVENCRFIVGKAEKLFESIDTPSENTSVILDPPRKGCDELFLKQLAAYNPAKIIYISCNVHSQARDVEYFLKETENGSAHQIESIRGFDFFPQTHHVESVCIMKRI
B3: Ypt31p: yeast protein with GTP-binding activity (protein, UniProt P38555 2-223, looked up)
GTP-binding protein YPT31/YPT8: SSEDYGYDYDLLFKIVLIGDSGVGKSNLLSRFTKNEFNMDSKSTIGVEFATRTLEIDGKRIKAQIWDTAGQERYRAITSAYYRGAVGALIVYDISKSSSYENCNHWLSELRENADDNVAVGLIGNKSDLAHLRAVPTEESKTFAQENQLLFTETSALNSENVDKAFEELINTIYQKVSKHQMDLGDSSANGNANGASAPNGPTISLTPTPNENKKANGNNCC
B4: Sqt1p: yeast protein that interacts with Rp110p (protein, UniProt P35184 1-431, looked up)
Ribosome assembly protein SQT1: MEPQEEFITTEEVEQEIVPTVEVEQDVPVDIEGENDDDDEMMNDDEEALEVDMSNNSLTYFDKHTDSVFAIGHHPNLPLVCTGGGDNLAHLWTSHSQPPKFAGTLTGYGESVISCSFTSEGGFLVTADMSGKVLVHMGQKGGAQWKLASQMQEVEEIVWLKTHPTIARTFAFGATDGSVWCYQINEQDGSLEQLMSGFVHQQDCSMGEFINTDKGENTLELVTCSLDSTIVAWNCFTGQQLFKITQAEIKGLEAPWISLSLAPETLTKGNSGVVACGSNNGLLAVINCNNGGAILHLSTVIELKPEQDELDASIESISWSSKFSLMAIGLVCGEILLYDTSAWRVRHKFVLEDSVTKLMFDNDDLFASCINGKVYQFNARTGQEKFVCVGHNMGVLDFILLHPVANTGTEQKRKVITAGDEGVSLVFEVPN
B5: Ils1p: isoleucyl-tRNA synthetase (protein, UniProt P09436 1-1072, looked up)
Isoleucine--tRNA ligase, …: MSESNAHFSFPKEEEKVLSLWDEIDAFHTSLELTKDKPEFSFFDGPPFATGTPHYGHILASTIKDIVPRYATMTGHHVERRFGWDTHGVPIEHIIDKKLGITGKDDVFKYGLENYNNECRSIVMTYASDWRKTIGRLGRWIDFDNDYKTMYPSFMESTWWAFKQLHEKGQVYRGFKVMPYSTGLTTPLSNFEAQQNYKDVNDPAVTIGFNVIGQEKTQLVAWTTTPWTLPSNLSLCVNADFEYVKIYDETRDRYFILLESLIKTLYKKPKNEKYKIVEKIKGSDLVGLKYEPLFPYFAEQFHETAFRVISDDYVTSDSGTGIVHNAPAFGEEDNAACLKNGVISEDSVLPNAIDDLGRFTKDVPDFEGVYVKDADKLIIKYLTNTGNLLLASQIRHSYPFCWRSDTPLLYRSVPAWFVRVKNIVPQMLDSVMKSHWVPNTIKEKRFANWIANARDWNVSRNRYWGTPIPLWVSDDFEEVVCVGSIKELEELTGVRNITDLHRDVIDKLTIPSKQGKGDLKRIEEVFDCWFESGSMPYASQHYPFENTEKFDERVPANFISEGLDQTRGWFYTLAVLGTHLFGSVPYKNVIVSGIVLAADGRKMSKSLKNYPDPSIVLNKYGADALRLYLINSPVLKAESLKFKEEGVKEVVSKVLLPWWNSFKFLDGQIALLKKMSNIDFQYDDSVKSDNVMDRWILASMQSLVQFIHEEMGQYKLYTVVPKLLNFIDELTNWYIRFNRRRLKGENGVEDCLKALNSLFDALFTFVRAMAPFTPFLSESIYLRLKEYIPEAVLAKYGKDGRSVHFLSYPVVKKEYFDEAIETAVSRMQSVIDLGRNIREKKTISLKTPLKTLVILHSDESYLKDVEALKNYIIEELNVRDVVITSDEAKYGVEYKAVADWPVLGKKLKKDAKKVKDALPSVTSEQVREYLESGKLEVAGIELVKGDLNAIRGLPESAVQAGQETRTDQDVLIIMDTNIYSELKSEGLARELVNRIQKLRKKCGLEATDDVLVEYELVKDTIDFEAIVKEHFDMLSKTCRSDIAKYDGSKTDPIGDEEQSINDTIFKLKVFKL
B6: THI13: yeast protein involved in nucleotide metabolism, GST-HisX6 fusion (protein, UniProt Q07748 1-340, looked up)
4-amino-5-hydroxymethyl-2-meth …: MSTDKITFLLNWQPTPYHIPIFLAQTKGYFKEQGLDIAILEPTNPSDVTELIGSGKVDMGLKAMIHTLAAKARGFPVTSVASLLDEPFTGVLYLKGSGITEDFQSLKGKKIGYVGEFGKIQIDELTKHYGMKPEDYTAVRCGMNVAKYIIEGKIDAGIGIECMQQVELEEYLAKQGRPASDAKMLRIDKLACLGCCCFCTVLYICNDEFLKKNPEKVRKFLKAIKKATDYVLADPVKAWKEYIDFKPQLNNDLSYKQYQRCYAYFSSSLYNVHRDWKKVTGYGKRLAILPPDYVSNYTNEYLSWPEPEEVSDPLEAQRLMAIHQEKCRQEGTFKRLALPA
modifications: GST-His6 tag
notes: yeast protein involved in nucleotide metabolism, GST-HisX6 fusion

How the values were obtained:
total yeast genomic DNA = assay: Yeast proteome chip probed with labeled genomic DNA; assay type: binding; conditions: Cy3-labeled genomic DNA, visual inspection
Description: Protein-DNA and protein-RNA interactions are important for many fundamental biological functions such as transcription regulation, chromosome segregation and maintenance, and RNA transport and processing (Williamson, 2000, Nat. Struct. Biol. 7(10):834-7). To explore the possibility of using a proteome chip to identify proteins that bind to DNA or RNA molecules, total yeast genomic DNA was labeled using Cy3-CTP and Klenow fragment, and polyA^+ was labeled using a biotinylated psoralen-derivative (31). Each probe was incubated with a different proteome chip (FIG. 3A).
The protein-nucleic acid interaction was assayed as follows. The nucleic acid robes were labeled as described by Winzeler et al. (1999, Science 285:901). Blocked proteome chips were washed three to five times in PBS buffer, and the extra liquid on the glass surface was removed by tapping the slides vertically on a KIMWIPE™. 200 μl of labeled nuclei acid probe ([…] poly(dC/dG); 100-300 mM NaCl; 50-300 mM HEPES, pH 7.0-8.5; 10 mM MgCl2) was added to the proteome chip and immediately covered by a hydrophobic plastic cover slip (GRACE BIO-LABS™, USA). After trapped air bubbles were removed, the chip was incubated in a humidity chamber in the dark at room temperature (“RT”) for one hour. To remove the cover slip, the chip was immersed into large volume of PBS buffer(>50 ml), so that the slip would float away. The chip was then moved to a second PBS bath (>50 ml) and washed 3×5 min with shaking in the dark at RT. To completely remove the liquid on the chip, the chip was spun to dryness at 1500-2000 rpm for 5-10 min at RT.

PI(3,4,5)P3 liposomes = assay: Yeast proteome chip probed with PI(3,4,5)P3 liposomes; conditions: liposome binding signal on yeast proteome chip, Cy3-streptavidin detection
PI(4)P liposomes = assay: Yeast proteome chip probed with PI(4)P liposomes; conditions: liposome binding signal on yeast proteome chip, Cy3-streptavidin detection
[1] = test system: phosphatidylcholine (PC) liposomes; assay: Yeast proteome chip probed with PC liposomes; conditions: liposome binding signal on yeast proteome chip, Cy3-streptavidin detection
In short: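 Yeast proteome chips incubated 1 h at RT with sonicated liposomes of PC containing 1% (w/w) biotin-DHPE, plus 5% (w/w) of the indicated phosphoinositide where applicable. After PBS washes, bound liposomes detected with Cy3- or Cy5-streptavidin (>30 min, RT, dark) and fluorescence scanned.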

PI(3)P liposomes = assay: Yeast proteome chip probed with PI(3)P liposomes; conditions: liposome binding signal on yeast proteome chip, Cy3-streptavidin detection
PI(3,4)P2 liposomes = assay: Yeast proteome chip probed with PI(3,4)P2 liposomes; conditions: liposome binding signal on yeast proteome chip, Cy3-streptavidin detection
PI(4,5)P2 liposomes = assay: Yeast proteome chip probed with PI(4,5)P2 liposomes; conditions: liposome binding signal on yeast proteome chip, Cy3-streptavidin detection

Molecule | binding of genomic DNA probe (total yeast genomic DNA) | other results
B1 | identified | 
B2 | identified | 
B3 | bind the DNA probe | 
B4 | tested positive | 
B5 | identified | 
B6 | bind the DNA probe | PI(3, 4, 5)P3 (PI(3,4,5)P3 liposomes): 39.04; PI(4)P (PI(4)P liposomes): 55.09; PC [1]: 43.14; PI(3)P (PI(3)P liposomes): 13.75; PI(3, 4)P2 (PI(3,4)P2 liposomes): 75.66; PI(4, 5)P2 (PI(4,5)P2 liposomes): 64.67
